# Test results as given in patent publication US20180155451A1 (published 2018).
# T1: FcγRIIa H (human, UniProt P12318 34-217)
# T1 construct: extracellular domain; Soluble His-tagged extracellular domain expressed in FreeStyle293 cells; also called FcγRIIa type H; FcgRIIa H; not shown: His tag attached to the C terminus
# T1 sequence (looked up): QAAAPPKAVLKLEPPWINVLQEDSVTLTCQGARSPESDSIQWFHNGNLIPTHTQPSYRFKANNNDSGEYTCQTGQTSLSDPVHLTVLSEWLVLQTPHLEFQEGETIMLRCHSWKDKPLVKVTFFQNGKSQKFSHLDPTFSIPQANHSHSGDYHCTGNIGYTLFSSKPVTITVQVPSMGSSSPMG
# T2: FcγRIIb (human, UniProt P31994 43-217)
# T2 construct: extracellular domain; Soluble His-tagged extracellular domain expressed in FreeStyle293 cells; also called FcgRIIb; 2b; not shown: His tag attached to the C terminus
# T2 sequence (looked up): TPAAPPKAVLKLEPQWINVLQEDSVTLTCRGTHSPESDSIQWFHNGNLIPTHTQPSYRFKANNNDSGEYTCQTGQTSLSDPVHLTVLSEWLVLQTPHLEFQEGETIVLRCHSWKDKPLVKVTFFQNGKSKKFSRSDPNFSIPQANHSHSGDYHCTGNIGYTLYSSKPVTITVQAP
# B1: GpH7-A5/GpH7-B3 variant A327_08L/GpL16-k0 (antibody, human IgG1, kappa)
# heavy 1: not shown
# heavy 2: not shown
# light: DIVMTQSPLSLPVTPGEPASISCQASESLVHSNRNTYLHWYLQKPGQSPQLLIYKVSNRFSGVPDRFSGSGSGTDFTLKISRVEAEDVGVYYCSQNTHVPPTFGQGTKVEIERTVAAPSVFIFPPSDEQLKSGTASVVCLLNNFYPREAKVQWKVDNALQSGNSQESVTEQDSKDSTYSLSSTLTLSKADYEKHKVYACEVTHQGLSSPVTKSFNRGEC
# notes: Heterodimerized anti-glypican-3 IgG1; mutation in the GpH7-B3 H chain only; also called He Ab
# B2: GpH7-A5/GpH7-B3 variant L328_06M/GpL16-k0 (antibody, human IgG1, kappa)
# heavy 1: not shown
# heavy 2: not shown
# light: B1 light
# notes: as for B1
# B3: GpH7-A5/GpH7-B3 variant P331_03V/GpL16-k0 (antibody, human IgG1, kappa)
# heavy 1: not shown
# heavy 2: not shown
# light: B1 light
# notes: as for B1
# B4: GpH7-A5/GpH7-B3 variant A327_18N/GpL16-k0 (antibody, human IgG1, kappa)
# heavy 1: not shown
# heavy 2: not shown
# light: B1 light
# notes: as for B1
# B5: GpH7-A5/GpH7-B3 variant S324_01G/GpL16-k0 (heterodimerized antibody, He Ab) (antibody, human IgG1, kappa)
# heavy 1: not shown
# heavy 2: not shown
# light: B1 light
# notes: Mutation in one H chain only; also called S324_01G He Ab
# B6: GpH7-A5/GpH7-B3 variant S324_06M/GpL16-k0 (heterodimerized antibody, He Ab) (antibody, human IgG1, kappa)
# heavy 1: not shown
# heavy 2: not shown
# light: B1 light
# notes: Mutation in one H chain only; also called S324_06M He Ab
# B7: GpH7-A5/GpH7-B3 variant T335_05P/GpL16-k0 (heterodimerized antibody, He Ab) (antibody, human IgG1, kappa)
# heavy 1: not shown
# heavy 2: not shown
# light: B1 light
# notes: Mutation in one H chain only; also called T335_05P He Ab
# B8: GpH7-A5/GpH7-B3 variant Y300_08L/GpL16-k0 (heterodimerized antibody, He Ab) (antibody, human IgG1, kappa)
# heavy 1: not shown
# heavy 2: not shown
# light: B1 light
# notes: Mutation in one H chain only; also called Y300_08L He Ab
# B9: GpH7-A5/GpH7-B3 variant S324_09D/GpL16-k0 (heterodimerized antibody, He Ab) (antibody, human IgG1, kappa)
# heavy 1: not shown
# heavy 2: not shown
# light: B1 light
# notes: Mutation in one H chain only; also called S324_09D He Ab
# B10: GpH7-A5/GpH7-B3 variant T335_06M/GpL16-k0 (heterodimerized antibody, He Ab) (antibody, human IgG1, kappa)
# heavy 1: not shown
# heavy 2: not shown
# light: B1 light
# notes: Mutation in one H chain only; also called T335_06M He Ab
# B11: GpH7-A5/GpH7-B3 variant T335_09D/GpL16-k0 (heterodimerized antibody, He Ab) (antibody, human IgG1, kappa)
# heavy 1: not shown
# heavy 2: not shown
# light: B1 light
# notes: Mutation in one H chain only; also called T335_09D He Ab
# B12: GpH7-A5/GpH7-B3 variant S337_16H/GpL16-k0 (heterodimerized antibody, He Ab) (antibody, human IgG1, kappa)
# heavy 1: not shown
# heavy 2: not shown
# light: B1 light
# notes: Mutation in one H chain only; also called S337_16H He Ab
# B13: GpH7-A5/GpH7-B3 variant S324_20W/GpL16-k0 (heterodimerized antibody, He Ab) (antibody, human IgG1, kappa)
# heavy 1: not shown
# heavy 2: not shown
# light: B1 light
# notes: Mutation in one H chain only; also called S324_20W He Ab
# B14: GpH7-A5/GpH7-B3 variant S298_03V/GpL16-k0 (heterodimerized antibody, He Ab) (antibody, human IgG1, kappa)
# heavy 1: not shown
# heavy 2: not shown
# light: B1 light
# notes: Mutation in one H chain only; also called S298_03V He Ab
# B15: GpH7-A5/GpH7-B3 variant S324_14T/GpL16-k0 (heterodimerized antibody, He Ab) (antibody, human IgG1, kappa)
# heavy 1: not shown
# heavy 2: not shown
# light: B1 light
# notes: Mutation in one H chain only; also called S324_14T He Ab
# B16: GpH7-A5/GpH7-B3 variant T335_08L/GpL16-k0 (heterodimerized antibody, He Ab) (antibody, human IgG1, kappa)
# heavy 1: not shown
# heavy 2: not shown
# light: B1 light
# notes: Mutation in one H chain only; also called T335_08L He Ab
# B17: GpH7-A5/GpH7-B3 variant Y296_20W/GpL16-k0 (heterodimerized antibody, He Ab) (antibody, human IgG1, kappa)
# heavy 1: not shown
# heavy 2: not shown
# light: B1 light
# notes: Mutation in one H chain only; also called Y296_20W He Ab
# B18: GpH7-A5/GpH7-B3 variant S239_18N/GpL16-k0 (heterodimerized antibody, He Ab) (antibody, human IgG1, kappa)
# heavy 1: not shown
# heavy 2: not shown
# light: B1 light
# notes: Mutation in one H chain only; also called S239_18N He Ab
# B19: GpH7-A5/GpH7-B3 variant S239_10E/GpL16-k0 (heterodimerized antibody, He Ab) (antibody, human IgG1, kappa)
# heavy 1: not shown
# heavy 2: not shown
# light: B1 light
# notes: Mutation in one H chain only; also called S239_10E He Ab
# B20: GpH7-A5/GpH7-B3 variant S337_01G/GpL16-k0 (heterodimerized antibody, He Ab) (antibody, human IgG1, kappa)
# heavy 1: not shown
# heavy 2: not shown
# light: B1 light
# notes: Mutation in one H chain only; also called S337_01G He Ab
# Biological target: T1, FcγRIIa H
# Experiment: SPR (Biacore); He/Con_2aH divided by He/Con_2b (FcγRIIb) of the same antibody
# Description: The heterodimerized antibodies He Abs in which one of the H chains was introduced with an alteration were assayed for their binding activities to each activating FcγR and inhibitory FcγR according to the method described in Example 4. […] The activating FcγRs in FIGS. 26, 27, 28, and 29 are FcγRIa, FcγRIIa (R), FcγRIIa (H), and FcγRIIIa, respectively.
# (§1) Analysis of interaction between objective antibody and the FcγR was carried out using Biacore T100 (GE Healthcare). HBS-EP+ (GE Healthcare) was used as the running buffer, and the measurement temperature was set to 25° C. Chips produced by immobilizing the antigen peptide by the amine coupling method to a Series S Sencor Chip CM5 (GE Healthcare), or alternatively, chips produced by allowing preliminarily biotinylated antigen peptides to interact with and immobilize onto a Series S Sensor Chip SA (certified) (GE Healthcare) were used. Antibodies of interest were captured onto an antigen peptide-immobilized chip, and allowed to interact to each FcγR diluted with running buffer. To regenerate and repeatedly use the chip, the antibodies captured on the chip were washed off by reacting 10 mM glycine-HCl, pH 1.5.
row,He_2aH/2b,Binder
1,0.74 ratio,B1
2,0.73 ratio,B2
3,0.7 ratio,B3
4,0.59 ratio,B4

# Biological target: T3, FcγRIIIa extracellular domain with C-terminal His tag (human, UniProt P08637 17-208)
# T3 construct: extracellular domain; also called 3a; FcgRIIIa
# T3 sequence (P08637 17-208): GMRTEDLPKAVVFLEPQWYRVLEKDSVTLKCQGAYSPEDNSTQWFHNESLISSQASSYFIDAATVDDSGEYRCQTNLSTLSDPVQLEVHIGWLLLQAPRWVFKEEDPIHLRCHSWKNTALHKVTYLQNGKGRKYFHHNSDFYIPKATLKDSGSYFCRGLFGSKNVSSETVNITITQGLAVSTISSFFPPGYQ
# Experiment: SPR (Biacore), antibody captured on antigen-peptide chip, FcγR analyte, relative binding
row,He/Con_3a,Binder
1,105 % of GpH7-A5/GpH7-B3/GpL16-k0 (=100),B5
2,113 % of GpH7-A5/GpH7-B3/GpL16-k0 (=100),B6
3,105 % of GpH7-A5/GpH7-B3/GpL16-k0 (=100),B7
4,105 % of GpH7-A5/GpH7-B3/GpL16-k0 (=100),B8
5,101 % of GpH7-A5/GpH7-B3/GpL16-k0 (=100),B9
6,102 % of GpH7-A5/GpH7-B3/GpL16-k0 (=100),B10
7,108 % of GpH7-A5/GpH7-B3/GpL16-k0 (=100),B11
8,108 % of GpH7-A5/GpH7-B3/GpL16-k0 (=100),B12
9,102 % of GpH7-A5/GpH7-B3/GpL16-k0 (=100),B13
10,109 % of GpH7-A5/GpH7-B3/GpL16-k0 (=100),B14
11,103 % of GpH7-A5/GpH7-B3/GpL16-k0 (=100),B15
12,102 % of GpH7-A5/GpH7-B3/GpL16-k0 (=100),B16
13,135 % of GpH7-A5/GpH7-B3/GpL16-k0 (=100),B17
14,110 % of GpH7-A5/GpH7-B3/GpL16-k0 (=100),B18
15,181 % of GpH7-A5/GpH7-B3/GpL16-k0 (=100),B19
16,102 % of GpH7-A5/GpH7-B3/GpL16-k0 (=100),B20

# Biological target: T1, FcγRIIa H
# Experiment: SPR (Biacore), captured antibody, FcγR analyte; relative to GpH7-A5/GpH7-B3/GpL16-k0 = 100
# Description: as §1
# (§2) The FcγR-binding activity of each antibody was assessed primarily using as an indicator the FcγR-binding activity and dissociation constant for FcγR.
row,He/Con_2aH,Binder
1,46.9 relative (control = 100),B1
2,104 relative (control = 100),B2
3,82.5 relative (control = 100),B3
4,66.8 relative (control = 100),B4

# Biological target: T2, FcγRIIb
# Experiment: as above
# Description: as §1, §2
row,He/Con_2b,Binder
1,63.1 relative (control = 100),B1
2,142 relative (control = 100),B2
3,119 relative (control = 100),B3
4,113 relative (control = 100),B4
